IntAct's records for PubMed 19864458

B1: MICAL-like protein 1 (Homo sapiens), Q8N3F8 (parent)
chain: MAGPRGALLAWCRRQCEGYRGVEIRDLSSSFRDGLAFCAILHRHRPDLLDFDSLSKDNVFENNRLAFEVAEKELGIPALLDPNDMVSMSVPDCLSIMTYVSQYYNHFCSPGQAGVSPPRKGLAPCSPPSVAPTPVEPEDVAQGEELSSGSLSEQGTGQTPSSTCAACQQHVHLVQRYLADGRLYHRHCFRCRRCSSTLLPGAYENGPEEGTFVCAEHCARLGPGTRSGTRPGPFSQPKQQHQQQLAEDAKDVPGGGPSSSAPAGAEADGPKASPEARPQIPTKPRVPGKLQELASPPAGRPTPAPRKASESTTPAPPTPRPRSSLQQENLVEQAGSSSLVNGRLHELPVPKPRGTPKPSEGTPAPRKDPPWITLVQAEPKKKPAPLPPSSSPGPPSQDSRQVENGGTEEVAQPSPTASLESKPYNPFEEEEEDKEEEAPAAPSLATSPALGHPESTPKSLHPWYGITPTSSPKTKKRPAPRAPSASPLALHASRLSHSEPPSATPSPALSVESLSSESASQTAGAELLEPPAVPKSSSEPAVHAPGTPGNPVSLSTNSSLASSGELVEPRVEQMPQASPGLAPRTRGSSGPQPAKPCSGATPTPLLLVGDRSPVPSPGSSSPQLQVKSSCKENPFNRKPSPAASPATKKATKGSKPVRPPAPGHGFPLIKRKVQADQYIPEEDIHGEMDTIERRLDALEHRGVLLEEKLRGGLNEGREDDMLVDWFKLIHEKHLLVRRESELIYVFKQQNLEQRQADVEYELRCLLNKPEKDWTEEDRAREKVLMQELVTLIEQRNAIINCLDEDRQREEEEDKMLEAMIKKKEFQREAEPEGKKKGKFKTMKMLKLLGNKRDAKSKSPRDKS
partner: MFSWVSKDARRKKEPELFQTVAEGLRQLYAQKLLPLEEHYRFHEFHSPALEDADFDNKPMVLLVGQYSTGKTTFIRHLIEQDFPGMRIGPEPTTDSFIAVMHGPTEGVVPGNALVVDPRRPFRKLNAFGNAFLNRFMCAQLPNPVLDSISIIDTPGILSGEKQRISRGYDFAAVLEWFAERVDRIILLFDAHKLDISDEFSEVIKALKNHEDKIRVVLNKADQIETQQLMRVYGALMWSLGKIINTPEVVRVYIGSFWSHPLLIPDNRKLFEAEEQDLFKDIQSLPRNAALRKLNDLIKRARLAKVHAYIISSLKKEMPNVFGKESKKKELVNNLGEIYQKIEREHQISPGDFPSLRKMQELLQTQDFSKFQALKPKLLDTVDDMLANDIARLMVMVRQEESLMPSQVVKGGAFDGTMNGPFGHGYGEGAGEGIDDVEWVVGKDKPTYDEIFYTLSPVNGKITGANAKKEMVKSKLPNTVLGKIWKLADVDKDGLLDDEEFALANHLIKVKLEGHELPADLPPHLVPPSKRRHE
B2: EH domain-containing protein 1 (Homo sapiens), Q9H4M9 (parent)
chain: B1 partner

Variants of: B1
Settings: with ehd1_human EHD1, Q9H4M9
In the case of N425A;F427A, the “effect of a mutation on the interaction” value is reported as “disrupting interaction”.

Variants of: B1
Settings: with ehd1_human EHD1, Q9H4M9
Remark: another data set of the same source
With N425A;F427A the “effect of a mutation on the interaction” value was “decreasing interaction”.

Variants of: B2
Settings: with milk1_human MICALL1, Q8N3F8
MFSWVSKDARRKKEPELFQTVAEGLRQLYAQKLLPLEEHYRFHEFHSPALEDADFDNKPMVLLVGQYSTGKTTFIRHLIEQDFPGMRIGPEPTTDSFIAVMHGPTEGVVPGNALVVDPRRPFRKLNAFGNAFLNRFMCAQLPNPVLDSISIIDTPGILSGEKQRISRGYDFAAVLEWFAERVDRIILLFDAHKLDISDEFSEVIKALKNHEDKIRVVLNKADQIETQQLMRVYGALMWSLGKIINTPEVVRVYIGSFWSHPLLIPDNRKLFEAEEQDLFKDIQSLPRNAALRKLNDLIKRARLAKVHAYIISSLKKEMPNVFGKESKKKELVNNLGEIYQKIEREHQISPGDFPSLRKMQELLQTQDFSKFQALKPKLLDTVDDMLANDIARLMVMVRQEESLMPSQVVKGGAFDGTMNGPFGHGYGEGAGEGIDDVEWVVGKDKPTYDEIFYTLSPVNGKITGANAKKEMVKSKLPNTVLGEIWKLADVDKDGLLDDEEFALANHLIKVKLEGHELPADLPPHLVPPSKRRHE [K483E] was tested, and the “effect of a mutation on the interaction” value was “with no effect”.
